According to patent US6767720 (VLAAMS INTERUNIVERSITAIR INSTITUUT VOOR BIOTECHNOLOGIE VZW, dated 2004):

Target: T1, ANC-2H01 initial two-hybrid clone (part of ANC-2H01 fused to the GAL4-AD, plasmid pGAD10ANC2H01) (human, UniProt Q9UID6 27-485)
T1 construct: 27-485 is derived from 459 of 485 residues; also called ANC-2H01 clone; initial ANC-2H01 two-hybrid clone
T1 sequence: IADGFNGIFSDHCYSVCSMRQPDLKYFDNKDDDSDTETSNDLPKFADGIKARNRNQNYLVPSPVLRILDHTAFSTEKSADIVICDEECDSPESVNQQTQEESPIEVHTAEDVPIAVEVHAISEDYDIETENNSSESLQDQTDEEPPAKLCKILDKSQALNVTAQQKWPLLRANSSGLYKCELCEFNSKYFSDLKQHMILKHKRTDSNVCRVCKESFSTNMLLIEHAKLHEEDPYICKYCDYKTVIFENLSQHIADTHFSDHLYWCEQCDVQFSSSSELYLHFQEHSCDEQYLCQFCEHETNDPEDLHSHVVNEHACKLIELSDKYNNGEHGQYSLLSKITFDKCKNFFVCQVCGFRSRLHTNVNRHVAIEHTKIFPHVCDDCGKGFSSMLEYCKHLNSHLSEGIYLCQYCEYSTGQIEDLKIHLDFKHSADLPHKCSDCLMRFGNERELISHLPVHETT
Experiment: yeast two-hybrid, strain HF7c, HIS3 and LacZ reporters

- binding result: no binding
B1: lamin C fused to the GAL4 DNA binding domain (plasmid pLAM5′) (other, UniProt P04386 1-147, looked up)
chain: MKLLSSIEQACDICRLKKLKCSKEKPKCAKCLKNNWECRYSPKTKRSPLTRAHLTEVESRLERLEQLFLLIFPREDLDMILKMDSLQDIKALLTGLFVQDNVNKDAVTDRLASVETDMPLTLRQHRISATSSSEESSNKGQRQLTVSSEEVVSREVSGIKAAYEAELGDARKTLDSVAKERARLQLELSKVREEFKELKARNTKKEGDLIAAQARLKDLEALLNSKEAALSTALSEKRTLEGELHDLRGQVAKLEAALGEAKKQLQDEMLRRVDAENRLQTMKEELDFQKNIYSEELRETKRRHETRLVEID
notes: Irrelevant control protein
